The test concerns the target rabbit muscle fructose-1,6-bisphosphate aldolase A D128V (rabbit). Briefly: AUC.

On to “rabbit muscle fructose-1,6-bisphosphate aldolase A D128V (enzyme)”, for which the stoichiometry N worked out at 2.
